Molecular target: T1, gD tagged human FcRH2 on SVT2 cells (human, UniProt Q96LA5 20-508)
T1 construct: whole, on cells; also called huFcRH2; not shown: gD tag; the construct for this FcRH is not described
T1 sequence (looked up): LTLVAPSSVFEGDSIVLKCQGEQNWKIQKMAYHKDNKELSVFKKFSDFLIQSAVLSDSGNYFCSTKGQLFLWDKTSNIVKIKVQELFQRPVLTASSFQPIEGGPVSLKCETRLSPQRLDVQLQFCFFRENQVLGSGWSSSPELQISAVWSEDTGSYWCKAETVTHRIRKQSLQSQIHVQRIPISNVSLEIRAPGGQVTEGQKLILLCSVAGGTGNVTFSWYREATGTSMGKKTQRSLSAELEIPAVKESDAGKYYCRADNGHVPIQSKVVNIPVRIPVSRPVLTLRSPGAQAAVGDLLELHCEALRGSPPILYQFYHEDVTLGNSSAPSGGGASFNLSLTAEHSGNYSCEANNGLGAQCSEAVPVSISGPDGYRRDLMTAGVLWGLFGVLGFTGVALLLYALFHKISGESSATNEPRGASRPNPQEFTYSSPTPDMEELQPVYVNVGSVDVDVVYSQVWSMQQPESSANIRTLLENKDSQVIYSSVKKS
Test: FACS, SVT2.MSCV.gD.FcRH2 cells, PE secondary antibody

B1: murine monoclonal antibody anti-FcRH5-13G9 (antibody, V domains shown)
VH: EVQLVQSGPELKKPGETVKISCKASGYTFTNYGMNWVKQAPGKGLKWMGWVNTYTGEPTYTDDFKGRFAFSVETSASTVFLQINNLKNEDTATYFCARRSIPYYYAMDYWGQGTSLT
VL: DIVMTQSQKIMSTSVGDRVNVTCKASQNVGSNVAWYHQKPGQSPKALIYSASYRYSGVPDRFTGSGSGTDFTLTISNVQSEDLAEYFCQQYKTWTFGGGTKLEIKR
notes: Whole murine IgG from hybridoma; also called 13G9.1.1; mu13G9
- binding result: no binding (tested: 1.0 ug per about 10^6 cells (p-1120))
